Target: Fibrillar type I collagen (PureCol atelo-type I collagen, Advanced Biomatrix Cat# 5005) (UniProt P02453)
Experiment: ELISA

Sequence of UniProt P02453 (P02453 162-1217, chain 1 of 2): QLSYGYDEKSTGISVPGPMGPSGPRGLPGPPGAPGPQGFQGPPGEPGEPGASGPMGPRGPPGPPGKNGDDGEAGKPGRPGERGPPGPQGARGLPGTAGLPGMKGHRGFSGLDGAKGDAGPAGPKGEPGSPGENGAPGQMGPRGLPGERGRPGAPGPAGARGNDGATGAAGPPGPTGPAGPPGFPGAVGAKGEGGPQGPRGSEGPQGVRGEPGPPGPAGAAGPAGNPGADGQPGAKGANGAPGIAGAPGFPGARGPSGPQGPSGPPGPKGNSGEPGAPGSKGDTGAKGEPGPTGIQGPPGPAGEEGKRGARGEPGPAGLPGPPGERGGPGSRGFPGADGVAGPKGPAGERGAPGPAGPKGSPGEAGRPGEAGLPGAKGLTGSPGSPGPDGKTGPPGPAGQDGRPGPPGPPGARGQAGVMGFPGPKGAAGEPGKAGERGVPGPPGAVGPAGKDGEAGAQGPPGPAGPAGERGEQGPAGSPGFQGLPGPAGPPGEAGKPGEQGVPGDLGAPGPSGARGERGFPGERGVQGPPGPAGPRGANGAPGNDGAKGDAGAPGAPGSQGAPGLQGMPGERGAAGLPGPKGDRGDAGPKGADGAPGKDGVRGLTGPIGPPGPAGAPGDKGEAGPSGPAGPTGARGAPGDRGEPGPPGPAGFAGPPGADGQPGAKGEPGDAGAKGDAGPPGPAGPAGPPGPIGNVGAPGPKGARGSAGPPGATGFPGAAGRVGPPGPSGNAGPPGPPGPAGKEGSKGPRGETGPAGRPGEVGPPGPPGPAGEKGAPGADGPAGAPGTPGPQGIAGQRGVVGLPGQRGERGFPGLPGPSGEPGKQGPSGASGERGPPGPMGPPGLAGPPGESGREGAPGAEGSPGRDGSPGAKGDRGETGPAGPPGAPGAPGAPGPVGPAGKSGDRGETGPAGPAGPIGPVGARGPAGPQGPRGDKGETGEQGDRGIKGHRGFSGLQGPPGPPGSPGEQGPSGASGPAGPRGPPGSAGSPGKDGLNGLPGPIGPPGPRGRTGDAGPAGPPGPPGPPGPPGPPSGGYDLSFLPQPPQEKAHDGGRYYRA
Sequence of UniProt P02453 (P02465 80-1117, chain 2 of 2, further chain): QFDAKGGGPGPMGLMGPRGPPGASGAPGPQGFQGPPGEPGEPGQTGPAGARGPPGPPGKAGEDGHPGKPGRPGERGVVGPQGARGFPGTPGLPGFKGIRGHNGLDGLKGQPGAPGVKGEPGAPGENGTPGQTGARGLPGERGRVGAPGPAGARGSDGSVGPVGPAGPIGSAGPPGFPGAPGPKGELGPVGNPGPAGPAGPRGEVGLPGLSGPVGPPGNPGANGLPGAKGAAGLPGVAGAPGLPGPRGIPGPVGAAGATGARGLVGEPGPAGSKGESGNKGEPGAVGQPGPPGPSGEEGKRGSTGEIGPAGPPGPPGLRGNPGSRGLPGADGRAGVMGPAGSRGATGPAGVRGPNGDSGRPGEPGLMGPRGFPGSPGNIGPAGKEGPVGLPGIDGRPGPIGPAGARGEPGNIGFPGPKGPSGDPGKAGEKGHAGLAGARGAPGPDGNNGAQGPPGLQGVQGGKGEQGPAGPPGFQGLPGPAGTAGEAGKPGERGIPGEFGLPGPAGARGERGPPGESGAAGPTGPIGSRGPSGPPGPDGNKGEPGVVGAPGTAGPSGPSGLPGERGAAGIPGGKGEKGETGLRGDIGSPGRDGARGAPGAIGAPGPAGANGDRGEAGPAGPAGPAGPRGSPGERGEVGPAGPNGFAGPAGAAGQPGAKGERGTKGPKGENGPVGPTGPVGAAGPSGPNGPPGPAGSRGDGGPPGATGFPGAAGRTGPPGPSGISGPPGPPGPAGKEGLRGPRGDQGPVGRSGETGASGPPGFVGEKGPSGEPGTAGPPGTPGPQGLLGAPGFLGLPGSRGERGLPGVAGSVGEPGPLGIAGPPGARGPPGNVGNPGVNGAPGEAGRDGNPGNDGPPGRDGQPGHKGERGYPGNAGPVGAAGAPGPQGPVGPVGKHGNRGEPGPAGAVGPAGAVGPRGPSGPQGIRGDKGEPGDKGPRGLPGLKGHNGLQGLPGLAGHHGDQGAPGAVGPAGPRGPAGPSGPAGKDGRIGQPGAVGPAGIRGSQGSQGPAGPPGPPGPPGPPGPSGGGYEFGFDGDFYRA

Substance: WISP1ΔCT (form of WISP1 lacking a CT-domain), overexpressed in 4T1 cells (conditioned medium) (domain or fragment)
- binding relative to that of WISP1 at equal concentrations: 75%

— PMC8595651
